Experimental data: publication doi:10.1101/589515 (bioRxiv, 2019)

Target: the molecule itself
Assay: cryo-EM structure

B1: human polycystin-2 (PC2), truncated construct Pro185 - Asp723 (domain or fragment, UniProt Q13563 185-723, looked up)
chain: PRVAWAERLVRGLRGLWGTRLMEESSTNREKYLKSVLRELVTYLLFLIVLCILTYGMMSSNVYYYTRMMSQLFLDTPVSKTEKTNFKTLSSMEDFWKFTEGSLLDGLYWKMQPSNQTEADNRSFIFYENLLLGVPRIRQLRVRNGSCSIPQDLRDEIKECYDVYSVSSEDRAPFGPRNGTAWIYTSEKDLNGSSHWGIIATYSGAGYYLDLSRTREETAAQVASLKKNVWLDRGTRATFIDFSVYNANINLFCVVRLLVEFPATGGVIPSWQFQPLKLIRYVTTFDFFLAACEIIFCFFIFYYVVEEILEIRIHKLHYFRSFWNCLDVVIVVLSVVAIGINIYRTSNVEVLLQFLEDQNTFPNFEHLAYWQIQFNNIAAVTVFFVWIKLFKFINFNRTMSQLSTTMSRCAKDLFGFAIMFFIIFLAYAQLAYLVFGTQVDDFSTFQECIFTQFRIILGDINFAEIEEANRVLGPIYFTTFVFFMFFILLNMFLAIINDTYSEVKSDLAQQKAEMELSDLIRKGYHKALVKLKLKKNTVD
stoichiometry N: 4
